Measurements published in publication PMC3569449.

Legend:
[1] = target: N-terminal cytoplasmic domain of the a1 isoform of subunit a of human V-ATPase (residues 1-353) (human) (UniProt Q93050); test: SPR; Biacore T100; C1, H or a1NT amine-coupled to CM5; 20 mM HEPES-NaOH, 300 mM NaCl, 1 mM DTT, 0.05% P20, pH 7.5, 10°C; KD from steady-state Req against analyte concentration, 1:1 Langmuir isotherm
[2] = target: Human V-ATPase subunit H (non-tagged) (human) (UniProt Q9UI12); test: as above
[3] = target: Human V-ATPase subunit C1 (human) (UniProt P21283); test: as above
[4] = target: Human V-ATPase subunit C1 (human) (UniProt P21283); test: SPR; C1 immobilised on CM5; response at 10 µM analyte (E1G1, a1NT, or both together)
[5] = target: V-ATPase a NT (Saccharomyces cerevisiae) (UniProt P32563); test: ITC; details: cited from earlier work
Sequence of V-ATPase a NT (Saccharomyces cerevisiae) (P32563 104-372): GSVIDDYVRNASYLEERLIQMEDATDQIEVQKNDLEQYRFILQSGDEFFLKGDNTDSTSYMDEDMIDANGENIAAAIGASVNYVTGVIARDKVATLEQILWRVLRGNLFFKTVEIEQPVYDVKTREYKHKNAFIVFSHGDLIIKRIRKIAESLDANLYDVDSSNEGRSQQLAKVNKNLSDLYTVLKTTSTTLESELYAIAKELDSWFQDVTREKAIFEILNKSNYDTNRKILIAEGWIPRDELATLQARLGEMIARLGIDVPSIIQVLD

Sequence of Human V-ATPase subunit H (non-tagged) (human) (Q9UI12 whole entry): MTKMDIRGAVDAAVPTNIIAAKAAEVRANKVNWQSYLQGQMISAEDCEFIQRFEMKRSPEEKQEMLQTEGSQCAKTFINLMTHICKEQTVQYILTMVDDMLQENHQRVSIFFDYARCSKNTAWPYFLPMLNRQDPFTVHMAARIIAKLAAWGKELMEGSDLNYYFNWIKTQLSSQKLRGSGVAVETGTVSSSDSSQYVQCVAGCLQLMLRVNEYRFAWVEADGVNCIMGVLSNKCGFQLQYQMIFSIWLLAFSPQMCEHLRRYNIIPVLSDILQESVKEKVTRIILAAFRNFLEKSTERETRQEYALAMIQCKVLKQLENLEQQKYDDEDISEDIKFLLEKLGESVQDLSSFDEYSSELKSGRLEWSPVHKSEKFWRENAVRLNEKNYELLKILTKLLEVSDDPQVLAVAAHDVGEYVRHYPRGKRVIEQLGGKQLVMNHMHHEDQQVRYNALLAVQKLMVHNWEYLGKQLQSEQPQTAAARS
Sequence of Human V-ATPase subunit C1 (human) (P21283 whole entry): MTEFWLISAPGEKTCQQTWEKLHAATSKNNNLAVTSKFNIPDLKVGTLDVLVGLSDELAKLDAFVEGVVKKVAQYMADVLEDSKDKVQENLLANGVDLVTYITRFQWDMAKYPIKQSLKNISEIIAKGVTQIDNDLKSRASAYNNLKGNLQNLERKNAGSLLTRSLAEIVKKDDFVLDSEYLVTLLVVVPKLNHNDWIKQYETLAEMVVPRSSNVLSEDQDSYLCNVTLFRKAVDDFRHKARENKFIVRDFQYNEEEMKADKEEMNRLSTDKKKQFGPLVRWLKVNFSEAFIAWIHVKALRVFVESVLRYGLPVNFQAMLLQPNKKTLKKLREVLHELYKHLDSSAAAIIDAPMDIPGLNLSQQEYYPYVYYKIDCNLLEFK
Sequence of N-terminal cytoplasmic domain of the a1 isoform of subunit a of human V-ATPase (residues 1-353) (human) (Q93050 1-353): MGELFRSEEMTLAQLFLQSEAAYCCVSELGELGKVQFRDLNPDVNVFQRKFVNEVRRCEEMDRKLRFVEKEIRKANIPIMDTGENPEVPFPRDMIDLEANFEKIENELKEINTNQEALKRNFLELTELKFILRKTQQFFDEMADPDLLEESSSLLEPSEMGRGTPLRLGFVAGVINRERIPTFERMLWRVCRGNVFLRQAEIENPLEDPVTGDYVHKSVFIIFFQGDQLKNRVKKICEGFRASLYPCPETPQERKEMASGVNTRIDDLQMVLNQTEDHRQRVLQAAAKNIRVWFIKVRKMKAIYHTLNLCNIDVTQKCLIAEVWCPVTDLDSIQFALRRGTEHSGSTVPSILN
Sequence of V-ATPase C foot (P31412 2-157): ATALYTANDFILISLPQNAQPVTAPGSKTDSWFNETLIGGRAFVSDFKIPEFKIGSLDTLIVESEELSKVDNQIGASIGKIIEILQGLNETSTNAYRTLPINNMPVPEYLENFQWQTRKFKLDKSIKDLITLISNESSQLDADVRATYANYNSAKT
Sequence of V-ATPase C foot (P31412 278-392): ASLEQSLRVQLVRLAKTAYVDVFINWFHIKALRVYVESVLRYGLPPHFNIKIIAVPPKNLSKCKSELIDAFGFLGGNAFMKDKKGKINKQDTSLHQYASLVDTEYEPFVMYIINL
Sequence of V-ATPase EG (P22203 2-233): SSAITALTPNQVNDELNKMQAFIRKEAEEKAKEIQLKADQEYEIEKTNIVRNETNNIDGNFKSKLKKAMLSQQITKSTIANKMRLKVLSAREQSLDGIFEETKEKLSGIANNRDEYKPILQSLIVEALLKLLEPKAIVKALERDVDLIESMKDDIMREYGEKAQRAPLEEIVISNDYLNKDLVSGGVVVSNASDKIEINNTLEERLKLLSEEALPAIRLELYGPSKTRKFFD
Sequence of V-ATPase EG (P48836 2-114, further chain): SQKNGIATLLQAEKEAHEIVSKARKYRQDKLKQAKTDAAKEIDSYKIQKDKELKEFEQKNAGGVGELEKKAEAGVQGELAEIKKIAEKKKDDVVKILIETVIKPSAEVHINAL

Substance	Kd [2]	Kd [5]	also measured
E1G1 heterodimer of human V-ATPase (subunits E1 and G1, co-expressed and co-purified) (from UniProt P36543 1-226; O75348 1-118) (complex)			Kd [1]: 0.21 µM
Human V-ATPase subunit C1 (from UniProt P21283 1-382) (natural protein)	1.4 µM		
N-terminal cytoplasmic domain of the a1 isoform of subunit a of human V-ATPase (residues 1-353) (from UniProt Q93050 1-353) (domain or fragment)	0.36 µM		Kd [3]: 3 µM; response at 10 µM analyte [4]: 45 RU
V-ATPase C foot (from UniProt P31412)		22 µM	
V-ATPase EG (from UniProt P22203)		33 µM	
